Patent publication US20230212254A1 (published 2023)

Target: T1, FITC-labeled recombinant human PSMA protein (Acro, #PSA-HF244) (human, UniProt Q04609 44-750, FITC label)
T1 construct: Bought reagent
Assay: flow cytometry, gating of CAR(+) cells for T cell subset analysis (FIG. 79)
Description: Eight days after the start of stimulation, the CAR-T cells constructed in Example 8 were analyzed for T cell subsets using a flow cytometer: they were classified into stem cell-like memory T cells (T memory stem cells, CD45RA⁺CCR7⁺), central memory T cells (CD45RA⁻CCR7⁺), effector memory T cells (CD45RA⁻ CCR7⁻) and effector T cells (CD45RA⁺CCR7⁻) according to the presence or absence of the expression of CD45RA and CCR7. […] In addition, when analyzing PSMA-specific CAR(+) cells, FITC-labeled recombinant human PSMA protein (Acro, #PSA-HF244) was used to stain the CAR.

T1 sequence (Q04609 44-750 limits assumed): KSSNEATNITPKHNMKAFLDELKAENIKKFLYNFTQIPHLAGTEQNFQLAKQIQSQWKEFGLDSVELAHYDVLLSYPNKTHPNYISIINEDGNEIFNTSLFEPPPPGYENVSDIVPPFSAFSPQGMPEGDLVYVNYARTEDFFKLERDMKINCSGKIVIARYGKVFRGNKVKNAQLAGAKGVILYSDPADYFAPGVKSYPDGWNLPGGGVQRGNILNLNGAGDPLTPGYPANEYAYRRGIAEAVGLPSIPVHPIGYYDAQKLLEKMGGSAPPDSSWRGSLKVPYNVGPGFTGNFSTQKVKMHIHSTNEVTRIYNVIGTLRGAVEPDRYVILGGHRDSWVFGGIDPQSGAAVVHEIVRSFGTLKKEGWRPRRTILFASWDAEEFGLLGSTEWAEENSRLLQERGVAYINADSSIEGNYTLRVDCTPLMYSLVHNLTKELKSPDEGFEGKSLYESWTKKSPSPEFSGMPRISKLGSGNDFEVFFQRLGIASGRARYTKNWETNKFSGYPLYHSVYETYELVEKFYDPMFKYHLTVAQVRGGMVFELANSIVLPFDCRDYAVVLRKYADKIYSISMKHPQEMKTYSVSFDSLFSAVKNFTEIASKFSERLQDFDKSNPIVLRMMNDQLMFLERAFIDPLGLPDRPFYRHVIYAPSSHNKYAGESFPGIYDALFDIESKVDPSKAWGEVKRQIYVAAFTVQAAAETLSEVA

binding result: binds
B1: PSMA-specific CAR (Pbbz): scFv derived from the PSMA-specific J591 antibody, CD8 hinge-transmembrane domain, 4-1BB co-stimulatory domain, CD3ζ intracellular … (other)
chain: DIVMTQSHKFMSTSVGDRVSIICKASQDVGTAVDWYQQKPGQSPKLLIYWASTRHTGVPDRFTGSGSGTDFTLTITNVQSEDLADYFCQQYNSYPLTFGAGTMLDLKRGGGGSGGGGSGGGGSEVQLQQSGPELKKPGTSVRISCKTSGYTFTEYTIHWVKQSHGKSLEWIGNINPNNGGTTYNQKFEDKATLTVDKSSSTAYMELRSLTSEDSAVYYCAAGWNFDYWGQGTTLTVSSTTTPAPRPPTPAPTIASQPLSLRPEACRPAAGGAVHTRGLDFACDIYIWAPLAGTCGVLLLSLVITLYCKRGRKKLLYIFKQPFMRPVQTTQEEDGCSCRFPEEEEGGCELRVKFSRSADAPAYQQGQNQLYNELNLGRREEYDVLDKRRGRDPEMGGKPRRKNPQEGLYNELQKDKMAEAYSEIGMKGERRRGKGHDGLYQGLSTATKDTYDALHMQALPPR
notes: The Pbbz#F, #C, #S2 and #FCS2 cells are treated as carrying the same CAR
